Data: patent US20140329320A1 (OBSCHESTVO S OGRANICHENNOI OTVETSTVENNOSTYU TEKHNOPHARMA, published 2014)

T1: chicken ovalbumin protein (chicken, UniProt P01012 2-386)
T1 construct: Immobilized in wells as negative control of the MIF assay; also called nonspecific protein; negative control
T1 sequence: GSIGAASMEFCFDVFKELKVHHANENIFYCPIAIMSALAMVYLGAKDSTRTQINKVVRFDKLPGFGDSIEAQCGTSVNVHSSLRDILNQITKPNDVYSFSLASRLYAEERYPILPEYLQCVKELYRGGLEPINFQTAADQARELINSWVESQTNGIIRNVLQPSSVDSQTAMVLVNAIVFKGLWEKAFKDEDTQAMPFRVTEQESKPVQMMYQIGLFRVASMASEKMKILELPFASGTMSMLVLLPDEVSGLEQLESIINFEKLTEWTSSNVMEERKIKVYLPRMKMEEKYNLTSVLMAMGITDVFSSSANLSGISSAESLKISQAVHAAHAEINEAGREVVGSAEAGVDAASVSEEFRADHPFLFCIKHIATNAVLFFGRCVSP

B1: aCt2 nanoantibody (VHH)
VHH: QVQLVESGGGSVQAGGSLRLHCASSGYVEARILMGWFRQAPGKEREGVAAIYIGDGTTDYGDSVKGRFTVSQDGAKNAIYLHMYDVKPEDAATYYCAAGIMPWYRTWSGRLNVGDFDSWGQGTQVTVSS
notes: also called single domain nanoantibody aCt2
B2: aCt1 nanoantibody (VHH)
VHH: QVQLVESGGGSVQAGGSLRLSCTTSHYVASNSCMAWFRQAPGKKREGVASISRRADITFYADSVKERFVISRDNSERTLYLQMNSLKPEDTAMYYCAADLSYCGLTEEGYNHWGQGTQVTVSS
notes: also called single domain nanoantibody aCt1

Biological target: T1, chicken ovalbumin protein
Assay: microimmunofluorescence (MIF) on immobilized antigen, anti-HA and FITC secondary detection

Row | Binder | binding result
1 | B1 | no binding (tested: 10 µ/ml)
2 | B2 | no binding (tested: 10 µ/ml)
